Experimental data: patent US20170145113A1 (Genentech, published 2017)

Assays:
[1] = target: purified full-length murine HtrA1 (murine, UniProt Q9R118 23-480); test: cell-based or functional assay
[2] = target: purified full-length human HtrA1 (human, UniProt Q92743 23-480); test: cell-based or functional assay
[3] = target: T1, murine HtrA4 protease domain (murine, UniProt A2RT60 160-371, limits assumed); test: ELISA, hybridoma clone
T1 construct: domain: PD (protease domain); also called muHtrA4-PD; murine HtrA4-PD
T1 sequence (looked up): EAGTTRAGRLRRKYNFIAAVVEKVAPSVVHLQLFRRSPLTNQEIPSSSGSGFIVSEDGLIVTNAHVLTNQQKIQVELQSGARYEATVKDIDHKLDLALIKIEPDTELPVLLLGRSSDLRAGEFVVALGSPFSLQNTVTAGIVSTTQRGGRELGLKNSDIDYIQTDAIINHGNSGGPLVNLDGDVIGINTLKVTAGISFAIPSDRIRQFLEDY

[4] = target: T2, murine HtrA3 protease domain (murine, UniProt Q9D236 135-350, limits assumed); test: ELISA, hybridoma clone
T2 construct: domain: PD (protease domain); also called muHtrA3-PD; murine HtrA3-PD
T2 sequence (looked up): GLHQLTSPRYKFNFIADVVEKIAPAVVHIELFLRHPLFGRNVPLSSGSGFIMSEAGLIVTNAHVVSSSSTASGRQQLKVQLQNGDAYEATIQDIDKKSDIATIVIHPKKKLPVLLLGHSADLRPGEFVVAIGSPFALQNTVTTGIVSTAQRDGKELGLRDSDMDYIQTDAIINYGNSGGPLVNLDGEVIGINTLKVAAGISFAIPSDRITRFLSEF

[5] = target: T3, His-tagged human HtrA1 protease domain (human, UniProt Q92743 161-367); test: ELISA, antigen coated on plate, hybridoma clone
T3 construct: His-tagged protease domain; also called huHtrA1-PD-His; huHtrA1-PD
Protocol: (§1) ELISA was performed according to a standard protocol. Briefly, 96-well microliter ELISA plates (Greiner, Germany) were coated with 100 μl/well muHtrA1-PD-His or huHtrA1-PD-His (SEQ ID NO: 154) at 2 μg/ml in 0.05 M carbonate buffer (pH 9.6) at 4° C. overnight. After washing three times with wash buffer (0.05% TWEEN®20 in PBS, Sigma), plates were blocked with 100 μl ELISA assay diluents with BSA. 100 μl of cultured supernatants or diluted purified monoclonal antibodies (mAbs) were added and incubated for 1 h at room temperature. The plates were washed three times and incubated with HRP-conjugated goat anti-mouse IgG Fc for 1 h. After washing three times, bound enzyme was detected by addition of 100 μl/well of the TMB substrate (BioFX Laboratories) for 5 min. The reactions were stopped by adding 100 μl/well of stop reagent (BioFX Laboratories), followed by detection of color at absorbance 650 nm (A_{650 nm}).

[6] = target: T4, His-tagged recombinant murine HtrA1 protease domain (murine, UniProt Q9R118 156-367); test: ELISA, antigen coated on plate, hybridoma clone
T4 construct: His-tagged protease domain; also called muHtrA1-PD-His; muHtrA1-PD
Protocol: as §1

[7] = target: T3, His-tagged human HtrA1 protease domain; test: BIACORE SPR, single-cycle kinetics; Fab analyte over captured human HtrA1
[8] = target: T3, His-tagged human HtrA1 protease domain; test: SPR (BIACORE T200), huHtrA1-PD-His captured by anti-His, Fab injected
Protocol: These combination mutants included both a variant light chain and a variant heavy chain. BIACORE™ kinetic analysis was performed (as described below in Section C) using the combination mutants.
(§2) To determine the binding affinity of selected Fab variants for HtrA1, SPR measurement with a BIACORE™ T200 instrument was performed. Briefly, a series S sensor chip CM5 was activated with 1-EDC and NHS reagents according to the supplier's instructions, and anti-His antibody was coupled to achieve 200-300 response units (RU), then following by blocking un-reacted groups with 1 M ethanolamine. For kinetics measurements, approximately 5 nM of huHtrA1-PD-His was first injected at 10 μl/min flow rate to capture approximately 100 RU at 2 different flow cells (FC), except for FC1 (which served as a reference). Next, 5-fold serial dilutions of Fab in HBS-P buffer (0.01M HEPES pH 7.4, 0.15M NaCl, 0.005% surfactant P20) from low (0.8 nM) to high (50 nM) were injected (flow rate: 30 μl/min). The binding responses on HtrA1 were corrected by subtracting of RU from a blank flow cell. The sensorgram was recorded and subject to reference and buffer subtraction before evaluating by BIACORE® T200 Evaluation Software (version 2.0). Association rates (kₒₙ) and dissociation rates (koff) were calculated using a simple one-to-one Langmuir binding model. The equilibrium dissociation constant (KD) was calculated as the ratio of koff/kₒₙ.

[9] = target: T3, His-tagged human HtrA1 protease domain; test: as above; remark: listed apart in the source
[10] = target: T3, His-tagged human HtrA1 protease domain; test: cell-based or functional assay
[11] = target: T3, His-tagged human HtrA1 protease domain; test: cell-based or functional assay; remark: listed apart in the source
[12] = target: T3, His-tagged human HtrA1 protease domain; test: BIACORE SPR analysis, Fab format
Protocol: as §2

[13] = target: T3, His-tagged human HtrA1 protease domain; test: SPR (BIACORE), Fab
Source text: (§3) To address W91 oxidation in HVR-L3, 2 variants (LC-W91Y and LC-W91L) were generated and produced as Fabs for BIACORE™ SPR binding analysis.
(§4) To determine the binding affinity of anti-HtrA1 Fabs by single-cycle kinetics, (SPR) measurement with a BIACORE™ T100 instrument was used. Briefly, a series S sensor chip CM5 was activated with 1-ethyl-3-(3-dimethylamino-propyl)carbodiimide hydrochloride (EDC) and N-hydroxysuccinimide (NHS) reagents according to the supplier's instructions, and streptavidin (Pierce) was coupled to achieve approximately 2500 response units (RU), followed by blocking un-reacted groups with 1 M ethanolamine.
(§5) For kinetics measurements, biotinylated human or murine HtrA1-PD-His was first injected at 10 μl/min flow rate to capture approximately 150 RU at 3 different flow cells (FC), except for FC1 (which served as a reference), and then 5-fold serial dilutions of anti-HtrA1 Fab in HBS-P buffer (0.01M HEPES pH 7.4, 0.15 M NaCl, 0.005% surfactant P20) from low (0.48 nM) to high (300 nM) were injected (flow rate: 30 μl/min) one after the other in the same cycle with no regeneration between injections. The sensorgram was recorded and subject to reference and buffer subtraction before evaluating by BIACORE™ T100 Evaluation Software (version 2.0). Association rates (kₒₙ) and dissociation rates (koff) were calculated using a simple one-to-one Langmuir binding model. The equilibrium dissociation constant (KD) was calculated as the ratio koff/kₒₙ.

[14] = target: T4, His-tagged recombinant murine HtrA1 …; test: SPR (BIACORE), Fab
Source text: as §3, §4, §5

[15] = target: T3, His-tagged human HtrA1 protease domain; test: BIACORE T200 SPR; Fab analyte over huHtrA1-PD-His captured by anti-His antibody
Protocol: as §2

[16] = target: T3, His-tagged human HtrA1 protease domain; test: BIACORE SPR, Fab analyte, Human HtrA1-PD (N=2)
[17] = target: T3, His-tagged human HtrA1 protease domain; test: BIACORE SPR, single-cycle kinetics; Fab analyte over captured human HtrA1; remark: listed apart in the source
[18] = target: T3, His-tagged human HtrA1 protease domain; test: BIACORE SPR, single cycle kinetic analysis; ligand streptavidin-captured biotin human HtrA1, analyte Fab
Source text: as §4, §5

[19] = target: T4, His-tagged recombinant murine HtrA1 …; test: BIACORE SPR, single cycle kinetic analysis; ligand streptavidin-captured biotin murine HtrA1, analyte Fab
Source text: as §4, §5

[20] = target: T3, His-tagged human HtrA1 protease domain; test: SPR (BIACORE T100), single-cycle kinetics; biotinylated HtrA1-PD-His on streptavidin, Fab injected
Source text: as §4, §5

[21] = target: T4, His-tagged recombinant murine HtrA1 …; test: as above
Source text: as §4, §5

[22] = target: T3, His-tagged human HtrA1 protease domain; test: SPR (BIACORE), Fab; remark: listed apart in the source

Sequence of purified full-length human HtrA1 (Q92743 23-480): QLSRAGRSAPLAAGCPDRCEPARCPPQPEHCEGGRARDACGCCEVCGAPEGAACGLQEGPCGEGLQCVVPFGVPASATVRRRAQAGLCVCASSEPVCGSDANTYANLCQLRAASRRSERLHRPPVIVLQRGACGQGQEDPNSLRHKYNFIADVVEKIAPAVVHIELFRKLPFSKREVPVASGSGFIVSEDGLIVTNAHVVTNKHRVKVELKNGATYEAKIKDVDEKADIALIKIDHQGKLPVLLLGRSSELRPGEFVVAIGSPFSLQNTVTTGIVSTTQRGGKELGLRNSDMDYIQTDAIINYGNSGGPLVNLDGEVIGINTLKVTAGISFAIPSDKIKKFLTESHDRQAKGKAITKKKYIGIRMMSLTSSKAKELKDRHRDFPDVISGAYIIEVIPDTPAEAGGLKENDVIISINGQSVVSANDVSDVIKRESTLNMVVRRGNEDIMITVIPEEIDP
T3 sequence (Q92743 other isoform, or with tags, fused parts or gaps limits assumed): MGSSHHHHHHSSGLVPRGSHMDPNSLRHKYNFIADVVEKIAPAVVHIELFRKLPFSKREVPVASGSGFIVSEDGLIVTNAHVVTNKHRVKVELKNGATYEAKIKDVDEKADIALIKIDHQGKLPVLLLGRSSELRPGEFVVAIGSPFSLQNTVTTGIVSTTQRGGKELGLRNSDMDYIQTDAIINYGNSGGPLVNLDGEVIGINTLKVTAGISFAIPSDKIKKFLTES

B1: anti-HtrA1 hybridoma antibody clone 15H6 (antibody, V domains shown)
VH: QVQLQQSGAELVRPGASVTLSCKASGYTFTDSEMHWVKQTPVHGLEWIGGVDPETDGAAYNQKFKGKATLTADKSSSTAYMELRSLTSEDSAVYYCTRGYDYDYALDYWGQGTSVTVSS
VL: QIVLSQSPAILSASPGEKVTMTCRASSSVNFIHWYQQKPGSSPKPWISATSNLASGVPPRFSGSGSGTSYSLTISRVEAEDAATYYCQQWSSNPWTFGGGTKLEIK
notes: Murine mIgG2a, from hybridoma or recombinant from 293 cells; also called m15H6
IC50, FRET-based blocking assay (H2-Opt cleavage) [1]: 1.1 nM | fold improvement of IC50 against YW505.94 [1]: ~5 fold | IC50, FRET blocking assay, recombinant antibody from 293 cells [2]: ~0.7 nM | IC50, FRET-based blocking assay (H2-Opt cleavage) [2]: 0.7 nM | fold improvement of IC50 against YW505.94 [2]: ~2 fold | binding result [3]: no binding | binding result [4]: no binding

B2: anti-HtrA1 hybridoma antibody clone 20E2 (antibody, V domains shown)
VH: EVKLVESGGGLVQPGGSLKLSCAASGFTFSSYIMSWVRQTPEKRLEWVAYISNGGGTTYYPDTIKGRFTISRDNAKNTLYLQMNTLKSEDTAIYFCARQNFRSDGSSMDYWGQGTSVTVSS
VL: NIVLTQSPASLAVSLGQRATISCRASESVDTSGRSFMHWYQQKPGQPPRLLIYLASKLESGVPARFSGSGSRTDFTLTIDPVEADDAATYYCQQNNEDPYTFGGGTNLEIK
binding result [5]: binds | binding result [6]: binds | binding result [3]: no binding | binding result [4]: no binding

B3: h15H6.v2 Fab (Fab, V domains shown)
VH: EVQLVQSGAEVKKPGASVKVSCKASGYTFTDSEMHWVRQAPGQGLEWIGGVDPETDGAAYNQKFKGRATITRDTSTSTAYLELSSLRSEDTAVYYCTRGYDYDYALDYWGQGTLVTVSS
VL: DIQMTQSPSSLSASVGDRVTITCRASSSVNFIHWYQQKPGKAPKPLISATSNLASGVPSRFSGSGSGTDFTLTISSLQPEDFATYYCQQWSSNPWTFGQGTKVEIK
notes: Tested as Fab; also called parent; parental Fab
Kd [7]: 0.33 nM | koff [7]: 0.00014 s⁻¹ | kon [7]: 430000 M⁻¹ s⁻¹ | Kd [8]: 0.22 nM | koff [8]: 0.000158 s⁻¹ | kon [8]: 722000 M⁻¹ s⁻¹ | Kd [9]: 0.22 nM | koff [9]: 0.000158 s⁻¹ | kon [9]: 722000 M⁻¹ s⁻¹ | IC50, FRET-based H2-Opt blocking assay [10]: ~0.39 nM | IC50 FRET (H2-Opt substrate cleavage) [11]: 0.44 nM | IC90 FRET (H2-Opt substrate cleavage) [11]: 1.87 nM | Max inhibition (FRET H2-Opt assay) [11]: 91 | Kd [12]: 0.219 nM | Kd [13]: 0.2 nM | koff [13]: 0.00012 s⁻¹ | kon [13]: 690000 M⁻¹ s⁻¹ | Kd [14]: 0.4 nM | koff [14]: 0.00015 s⁻¹ | kon [14]: 360000 M⁻¹ s⁻¹ | Kd [15]: 0.219 nM | Kd [16]: 0.4 nM | koff [16]: 0.00021 s⁻¹ | kon [16]: 490000 M⁻¹ s⁻¹ | Kd [17]: 0.25 nM | koff [17]: 0.00016 s⁻¹ | kon [17]: 630000 M⁻¹ s⁻¹

B4: h19B12.v1 Fab (Fab, V domains shown)
VH: EVQLVESGGGLVQPGGSLRLSCAASGFTFSSYIMSWVRQAPGKGLEWVAYISNGGGTTYYSDTIKGRFTISRDNSKNTLYLQMNSLRAEDTAVYYCARQNFRSDGSSMDYWGQGTLVTVSS
VL: DIVMTQSPDSLAVSLGERATINCRASESVDSYGKSFMHWYQQKPGQPPKLLIYLASKLESGVPDRFSGSGSGTDFTLTISSLQAEDVAVYYCQQNNEDPYTFGQGTKVEIK
notes: Tested in Fab format
Kd [18]: 24 nM | koff [18]: 0.00345 s⁻¹ | kon [18]: 144000 M⁻¹ s⁻¹ | Kd [19]: 6.65 nM | koff [19]: 0.00134 s⁻¹ | kon [19]: 201000 M⁻¹ s⁻¹ | Kd [20]: 10.7 nM | koff [20]: 0.0016 s⁻¹ | kon [20]: 150000 M⁻¹ s⁻¹ | Kd [21]: 7.6 nM | koff [21]: 0.00091 s⁻¹ | kon [21]: 120000 M⁻¹ s⁻¹ | fold improvement of KD against m19B12 [22]: ~2 fold
